Our source for the binding result and koff values is patent publication US20100292083A1 (Ablynx, published 2010).

The labels stand for the following.
T1: human IL6R (human, UniProt P08887 20-358, limits assumed)
T1 construct: Antigen of the Biacore experiments; the construct is not described (biotinylated IL6R from Peprotech was used for the selections)
T1 sequence (looked up): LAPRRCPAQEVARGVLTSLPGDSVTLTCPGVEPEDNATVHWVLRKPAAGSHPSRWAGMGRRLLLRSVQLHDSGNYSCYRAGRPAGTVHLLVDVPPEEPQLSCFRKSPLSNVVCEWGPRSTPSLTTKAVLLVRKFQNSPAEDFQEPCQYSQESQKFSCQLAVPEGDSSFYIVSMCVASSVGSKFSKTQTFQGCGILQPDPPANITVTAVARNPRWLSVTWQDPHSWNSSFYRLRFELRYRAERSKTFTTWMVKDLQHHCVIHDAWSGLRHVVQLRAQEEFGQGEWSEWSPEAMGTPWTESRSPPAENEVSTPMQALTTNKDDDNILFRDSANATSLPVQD

B1: 32C9PMP2_E6 (VHH, name in Kabat numbering)
VHH: EVQLVESGGGLVQPGGSLRLSCAASGFTFSDYDIGWFRQAPGKEREGVSGISSSDGNTYYADSVKGRFTISRDNAKNTVYLQMNSLKAEDTAVYYCAREPPDSSWYLDGSPEFFKYWGQGTLVTVSS
notes: Humanized 32C9 variant
B2: 32C9PMP2_C12 (VHH, name in Kabat numbering)
VHH: EVQLVESGGGLVQAGGSLRLSCAASGFTFDDYDIGWVRQAPGKEREWVSGISSSDGNTYYADSVKGRFTISSDNAKNTLYLQMNSLKAEDTAVYYCAREPPDSSWYLDGSPEFFKYWGQGTLVTVSS
notes: Humanized 32C9 variant
B3: 32C9PMP2_B7 (VHH, name in Kabat numbering)
VHH: EVQLVESGGGLVQAGGSLRLSCAASGFTFSDYDIGWFRQAPGKGREGVSGISSSDGNTYYADSVKGRFTISRDNAKNTLYLQMNSLKAEDTAVYYCAREPPDSSWYLDGSPEFFKYWGQGTLVTVSS
notes: Humanized 32C9 variant
B4: 32C9PMP2_C4 (VHH, name in Kabat numbering)
VHH: EVQLVESGGGLVQAGGSLRLSCAASGFTFDDYDIGWFRQAPGKEREWVSGISSSDGNTYYADSVKGRFTISSDNAKNTVYLQMNSLKAEDTAVYYCAREPPDSSWYLDGSPEFFKYWGQGTLVTVSS
notes: Humanized 32C9 variant
B5: 32C9PMP2_D8 (VHH, name in Kabat numbering)
VHH: EVQLVESGGGLVQPGGSLRLSCAASGFTFSDYDIGWFRQAPGKEREGVSGISSSDGNTYYADSVKGRFTISRDNAKNTVYLQMNSLKAEDTAVYYCAREPPDSSWYLDGSPEFFKYWGQGTQVTVSS
notes: Humanized 32C9 variant
B6: 32C9PMP2_C10 (VHH, name in Kabat numbering)
VHH: EVQLVESGGGLVQPGGSLRLSCAASGFTFDDYDIGWVRQAPGKGREGVSGISSSDGNTYYADSVKGRFTISSDNAKNTLYLQMNSLKAEDTAVYYCAREPPDSSWYLDGSPEFFKYWGQGTLVTVSS
notes: Humanized 32C9 variant
B7: 32C9PMP2_F2 (VHH, name in Kabat numbering)
VHH: EVQLVESGGGLVQAGGSLRLSCAASGFTFDDYDIGWVRQAPGKEREWVSGISSSDGNTYYADSVKGRFTISSDNAKNTLYLQMNSLRPEDTAVYYCAREPPDSSWYLDGSPEFFKYWGQGTLVTVSS
notes: Humanized 32C9 variant
B8: 32C9PMP2_E7 (VHH, name in Kabat numbering)
VHH: EVQLVESGGGLVQAGGSLRLSCAASGFTFSDYDIGWFRQAPGKEREWVSGISSSDGNTYYADSVKGRFTISRDNAKNTLYLQMNSLRPEDTAVYYCAREPPDSSWYLDGSPEFFKYWGQGTLVTVSS
notes: Humanized 32C9 variant
B9: 32C9PMP2_F5 (VHH, name in Kabat numbering)
VHH: EVQLVESGGGLVQPGGSLRLSCAASGFTFDDYDIGWFRQAPGKEREWVSGISSSDGNTYYADSVKGRFTISSDNAKNTLYLQMNSLKAEDTAVYYCAREPPDSSWYLDGSPEFFKYWGQGTLVTVSS
notes: Humanized 32C9 variant
B10: 32C9PMP2_D5 (VHH, name in Kabat numbering)
VHH: EVQLVESGGGLVQPGGSLRLSCAASGFTFDDYDIGWVRQAPGKELEGVSGISSSDGNTYYADSVKGRFTISRDNAKNTVYLQMNSLKAEDTAVYYCAREPPDSSWYLDGSPEFFKYWGQGTLVTVSS
notes: Humanized 32C9 variant
B11: 32C9PMP1_H8 (VHH, name in Kabat numbering)
VHH: EVQLVESGGGLVQAGGSLRLSCAASGFTFDDYDIGWVRQAPGKGREGVSGISSSDGNTYYADSVKGRFTISRDNAKNTLYLQMNSLRPEDTAVYYCAREPPDSSWYLDGSPEFFKYWGQGTLVTVSS
notes: Humanized 32C9 variant
B12: 32C9PMP2_B4 (VHH, name in Kabat numbering)
VHH: EVQLVESGGGLVQPGGSLRLSCAASGFTFDDYDIGWFRQAPGKELEGVSGISSSDGNTYYADSVKGRFTISSDNAKNTVYLQMNSLRPEDTAVYYCAREPPDSSWYLDGSPEFFKYWGQGTQVTVSS
notes: Humanized 32C9 variant
B13: 32C9PMP2_A5 (VHH, name in Kabat numbering)
VHH: EVQLVESGGGLVQPGGSLRLSCAASGFTFDDYDIGWVRQAPGKGREGVSGISSSDGNTYYADSVKGRFTISSDNAKNTVYLQMNSLRPEDTAVYYCAREPPDSSWYLDGSPEFFKYWGQGTLVTVSS
notes: Humanized 32C9 variant
B14: 32C9PMP2_A10 (VHH, name in Kabat numbering)
VHH: EVQLVESGGGLVQAGGSLRLSCAASGFTFSDYDIGWVRQAPGKGREGVSGISSSDGNTYYADSVKGRFTISRDNAKNTLYLQMNSLKAEDTAVYYCAREPPDSSWYLDGSPEFFKYWGQGTQVTVSS
notes: Humanized 32C9 variant
B15: 32C9PMP2_D9 (VHH, name in Kabat numbering)
VHH: EVQLVESGGGLVQPGGSLRLSCAASGFTFSDYDIGWFRQAPGKGREGVSGISSSDGNTYYADSVKGRFTISSDNAKNTVYLQMNSLRPEDTAVYYCAREPPDSSWYLDGSPEFFKYWGQGTLVTVSS
notes: Humanized 32C9 variant
B16: 32C9PMP1_A1 (VHH, name in Kabat numbering)
VHH: EVQLVESGGGLVQAGGSLRLSCAASGFTFSDYDIGWVRQAPGKEREWVSGISSSDGNTYYADSVKGRFTISSDNAKNTLYLQMNSLRPEDTAVYYCAAEPPDSSWYLDGSPEFFKYWGQGTLVTVSS
notes: Humanized 32C9 variant
B17: 32C9PMP1_F8 (VHH, name in Kabat numbering)
VHH: EVQLVESGGGLVQAGGSLRLSCAASGFTFSDYDIGWFRQAPGKEREWVSGISSSDGNTYYADSVKGRFTISSDNAKNTLYLQMNSLKAEDTAVYYCAAEPPDSSWYLDGSPEFFKYWGQGTLVTVSS
notes: Humanized 32C9 variant
B18: 32C9PMP1_G11 (VHH, name in Kabat numbering)
VHH: EVQLVESGGGLVQAGGSLRLSCAASGFTFSDYDIGWFRQAPGKGREGVSGISSSDGNTYYADSVKGRFTISSDNAKNTVYLQMNSLRPEDTAVYYCAAEPPDSSWYLDGSPEFFKYWGQGTLVTVSS
notes: Humanized 32C9 variant
B19: 32C9PMP1_E6 (VHH, name in Kabat numbering)
VHH: EVQLVESGGGLVQAGGSLRLSCAASGFTFSDYDIGWVRQAPGKGREGVSGISSSDGNTYYADSVKGRFTISSDNAKNTVYLQMNSLKAEDTAVYYCAAEPPDSSWYLDGSPEFFKYWGQGTLVTVSS
notes: Humanized 32C9 variant
B20: 32C9PMP1_B5 (VHH, name in Kabat numbering)
VHH: EVQLVESGGGLVQPGGSLRLSCAASGFTFSDYDIGWFRQAPGKEREWVSGISSSDGNTYYADSVKGRFTISRDNAKNTLYLQMNSLRPEDTAVYYCAAEPPDSSWYLDGSPEFFKYWGQGTQVTVSS
notes: Humanized 32C9 variant
B21: 32C9PMP1_D4 (VHH, name in Kabat numbering)
VHH: EVQLVESGGGLVQAGGSLRLSCAASGFTFSDYDIGWFRQAPGKGREGVSGISSSDGNTYYADSVKGRFTISSDNAKNTLYLQMNSLKAEDTAVYYCAAEPPDSSWYLDGSPEFFKYWGQGTQVTVSS
notes: Humanized 32C9 variant
B22: 32C9PMP1_G5 (VHH, name in Kabat numbering)
VHH: EVQLVESGGGLVQPGGSLRLSCAASGFTFDDYDIGWFRQAPGKELEGVSGISSSDGNTYYADSVKGRFTISRDNAKNTLYLQMNSLRPEDTAVYYCAAEPPDSSWYLDGSPEFFKYWGQGTLVTVSS
notes: Humanized 32C9 variant
B23: 32C9PMP1_B3 (VHH, name in Kabat numbering)
VHH: EVQLVESGGGLVQPGGSLRLSCAASGFTFDDYDIGWVRQAPGKELEGVSGISSSDGNTYYADSVKGRFTISSDNAKNTLYLQMNSLRPEDTAVYYCAAEPPDSSWYLDGSPEFFKYWGQGTLVTVSS
notes: Humanized 32C9 variant
B24: 32C9PMP1_E7 (VHH, name in Kabat numbering)
VHH: EVQLVESGGGLVQAGGSLRLSCAASGFTFDDYDIGWFRQAPGKGREGVSGISSSDGNTYYADSVKGRFTISSDNAKNTLYLQMNSLKAEDTAVYYCAAEPPDSSWYLDGSPEFFKYWGQGTLVTVSS
notes: Humanized 32C9 variant
B25: 32C9PMP1_E1 (VHH, name in Kabat numbering)
VHH: EVQLVESGGGLVQAGGSLRLSCAASGFTFSDYDIGWFRQAPGKGREGVSGISSSDGNTYYADSVKGRFTISRDNAKNTLYLQMNSLKAEDTAVYYCAAEPPDSSWYLDGSPEFFKYWGQGTLVTVSS
notes: Humanized 32C9 variant
B26: 32C9PMP1_C5 (VHH, name in Kabat numbering)
VHH: EVQLVESGGGLVQAGGSLRLSCAASGFTFDDYDIGWVRQAPGKELEGVSGISSSDGNTYYADSVKGRFTISSDNAKNTVYLQMNSLRPEDTAVYYCAAEPPDSSWYLDGSPEFFKYWGQGTLVTVSS
notes: Humanized 32C9 variant
B27: 32C9PMP1_H4 (VHH, name in Kabat numbering)
VHH: EVQLVESGGGLVQPGGSLRLSCAASGFTFSDYDIGWFRQAPGKGREGVSGISSSDGNTYYADSVKGRFTISSDNAKNTLYLQMNSLKAEDTAVYYCAAEPPDSSWYLDGSPEFFKYWGQGTQVTVSS
notes: Humanized 32C9 variant

In one assay the target is T1, human IL6R. In words: SPR (Biacore), periplasmic extract. For orientation: Surface plasmon resonance follows binding to a sensor surface in real time, without labels.
Regarding B1, the binding result is “no binding”.

As to B2, the binding result is reported as “no binding”.

For the molecule B3, the binding result is listed as “no binding”.

B4: the binding result is reported as “no binding”.

In the case of B5, the binding result was “no binding”.

As to B6, the binding result is on record as “no binding”.

B7: the binding result is recorded as “no binding”.

Turning to B8, the binding result is “no binding”.

For B9, the binding result is on record as “no binding”.

With B10, the binding result is “no binding”.

As to B11, the binding result is recorded as “no binding”.

Regarding B12, the binding result is on record as “no binding”.

For the molecule B13, the binding result was “no binding”.

As to B14, the binding result is reported as “no binding”.

Consider B15, for which the binding result is “no binding”.

The next assay has as its target T1, human IL6R. Description: SPR (Biacore), periplasmic extract. This is another data set of the same source. The method, then:
The oligos were dissolved in H₂O and subsequently pooled at a final concentration of 0.4 uM for each oligo. 5 and 1 ul of this mixture was used for assembly PCR in a 50 ul reaction volume. Full-length product was purified using the Qiagen PCR purification kit. The purified PCR product was then digested with SfiI and BsteEII and ligated into the corresponding sites of expression vector pAX51. E. coli TG1 cells were transformed with 2 ul of ligation mixture and plated on LB agar+100 ug/ml ampicillin+2% glucose. Plates were incubated overnight at 37° C. Individual colonies were picked and grown overnight in 2×YT+100 ug/ml ampicillin+2% glucose. Cloned Nanobody genes were amplified directly from these cultures with M13 forward and reverse primers. PCR products were purified and subsequently sequenced. In parallel the same panel of Nanobodies was expressed at 1 ml scale for 4 hours at 37° C. Periplasmic extracts were prepared and without further purification analyzed on Biacore for their ability to bind human IL6R.
As a reminder, the koff is a measure of how fast the partners let go of each other. Higher therefore signals a short-lived complex. Regarding B16, the koff is 0.00515 s⁻¹.

The molecule B17 showed a koff of 0.00189 s⁻¹.

Consider B18, for which the koff came to 0.000204 s⁻¹.

In turn, B19 returned an off-rate constant (koff) of 0.000982 s⁻¹.

B20 yielded a koff of 0.00196 s⁻¹. This koff lies about 2-fold higher than the previous one.

The molecule B21 gave a koff of 0.000196 s⁻¹.

B22 had a koff of 0.00116 s⁻¹. This koff is about 5.9-fold higher than that of the molecule before.

In the case of B23, the koff stood at 0.00346 s⁻¹. This koff is about 3-fold higher than that of the molecule before.

Take B24: the koff amounted to 0.000187 s⁻¹. Against the preceding molecule, the koff is about 19-fold lower.

B25: the off-rate (koff) is 0.000205 s⁻¹.

For B26, the koff is 0.0052 s⁻¹.

As for B27, the koff worked out at 0.000187 s⁻¹.
